Data: PMC5700101

B1: Luc-KD (KD–IDL of Polo, amino acids 1–349, N-terminally fused to RLucII), KD^WT [Drosophila] / PBD–GFP (PBD of Polo, amino acids 350–576, C-terminally fused to GFP10) [Drosophila] (parent)
chain 1: MAAKPEDKSTDIPDRLVDINQRKTYKRMRFFGKGGFAKCYEIIDVETDDVFAGKIVSKKLMIKHNQKEKTAQEITIHRSLNHPNIVKFHNYFEDSQNIYIVLELCKKRSMMELHKRRKSITEFECRYYIYQIIQGVKYLHDNRIIHRDLKLGNLFLNDLLHVKIGDFGLATRIEYEGERKKTLCGTPNYIAPEILTKKGHSFEVDIWSIGCVMYTLLVGQPPFETKTLKDTYSKIKKCEYRVPSYLRKPAADMVIAMLQPNPESRPAIGQLLNFEFLKGSKVPMFLPSSCLTMAPRIGSNDTIEDSMHRKPLMEMNGIRPDDTRLESTFLKANLHDAITASAQVCRHSE
chain 2: DYRSDIESLYQQLTNLINGKPRILQGNLGDENTDPAAQPLFWISKWVDYSDKYGFGYQLCDEGIGVMFNDTTKLILLPNQINVHFIDKDGKETYMTTTDYCKSLDKKMKLLSYFKRYMIEHLVKAGANNVNIESDQISRMPHLHSWFRTTCAVVMHLTNGSVQLNFSDHMKLILCPRMSAITYMDQEKNFRTYRFSTIVENGVSKDLYQKIRYAQEKLRKMLEKMFT

Variants of: B1
Experiment: BRET
Details: with PBD–GFP (PBD of Polo, amino acids 350–576, C-terminally fused to GFP10) [Drosophila]; live HEK293T cells; fixed amount of Luc-KD vector, increasing PBD–GFP vector; Map205 fragment co-transfected; p-value 0.0374; parent: 0.197

Row | Variant | screen value [GFP/Luc]
1 | chain 1 MAAKPEDKSTDIPDRLVDINQRKTYKRMRFFGKGGFAKCYEIIDVETDDVFAGKIVSKKLMIKHNQKEKTAQEITIHRSLNHPNIVKFHNYFEDSQNIYIVLELCKKRSMMELHKRRKSITEFECRYYIYQIIQGVKYLHDNRIIHRDLKLGNLFLNDLLHVKIGDFGLATRIEYEGERKKDLCGTPNYIAPEILTKKGHSFEVDIWSIGCVMYTLLVGQPPFETKTLKDTYSKIKKCEYRVPSYLRKPAADMVIAMLQPNPESRPAIGQLLNFEFLKGSKVPMFLPSSCLTMAPRIGSNDTIEDSMHRKPLMEMNGIRPDDTRLESTFLKANLHDAITASAQVCRHSE [chain 1 T182D] | 0.412

Same assay, conditions: with PBD–GFP (PBD of Polo, amino acids 350–576, C-terminally fused to GFP10) [Drosophila]; live HEK293T cells; fixed amount of Luc-KD vector, increasing PBD–GFP vector; Map205 fragment co-transfected; p-value 0.4037; parent: 0.197

Row | Variant | screen value [GFP/Luc]
2 | chain 1 MAAKPEDKSTDIPDRLVDINQRKTYKRMRFFGKGGFAKCYEIIDVETDDVFAGKIVSKKLMIKHNQKEKTAQEITIHRSLNHPNIVKFHNYFEDSQNIYIVLELCKKRSMMELHKRRKSITEFECRYYIYQIIQGVKYLHDNRIIHRDLKLGNLFLNDLLHVKIGDFGLATRIEYEGERKKALCGTPNYIAPEILTKKGHSFEVDIWSIGCVMYTLLVGQPPFETKTLKDTYSKIKKCEYRVPSYLRKPAADMVIAMLQPNPESRPAIGQLLNFEFLKGSKVPMFLPSSCLTMAPRIGSNDTIEDSMHRKPLMEMNGIRPDDTRLESTFLKANLHDAITASAQVCRHSE [chain 1 T182A] | 0.148
